Earlier results on one substance are cited in PMC8608346.

The term Kd denotes the concentration at which binding is half-saturated.

The data set has as its target FPR1 (Homo sapiens) (UniProt P21462).
Chain of UniProt P21462 (P21462 whole entry): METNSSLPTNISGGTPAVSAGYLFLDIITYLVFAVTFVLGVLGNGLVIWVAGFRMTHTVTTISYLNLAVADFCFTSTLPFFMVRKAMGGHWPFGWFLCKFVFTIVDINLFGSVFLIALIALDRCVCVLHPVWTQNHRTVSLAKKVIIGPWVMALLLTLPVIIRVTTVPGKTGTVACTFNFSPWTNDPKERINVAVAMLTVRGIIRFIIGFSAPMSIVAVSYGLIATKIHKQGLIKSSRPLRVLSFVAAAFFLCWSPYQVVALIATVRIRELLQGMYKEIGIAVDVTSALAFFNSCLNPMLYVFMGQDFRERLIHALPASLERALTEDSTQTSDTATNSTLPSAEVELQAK

On to FAM19A4 (from UniProt Q96LR4), for which the dissociation constant (Kd) is 0.447 nM.
